The target of assay [1] is T1, human BSG2 (basigin isoform 2) on the cell surface (human, UniProt P35613 140-385).
T1 construct: Presented on stably transfected BAF3 cells or endogenously on human tumor cell lines (HepG2, MiaPaCa-2, DoHH-2); also called hBSG2; CD147
T1 sequence: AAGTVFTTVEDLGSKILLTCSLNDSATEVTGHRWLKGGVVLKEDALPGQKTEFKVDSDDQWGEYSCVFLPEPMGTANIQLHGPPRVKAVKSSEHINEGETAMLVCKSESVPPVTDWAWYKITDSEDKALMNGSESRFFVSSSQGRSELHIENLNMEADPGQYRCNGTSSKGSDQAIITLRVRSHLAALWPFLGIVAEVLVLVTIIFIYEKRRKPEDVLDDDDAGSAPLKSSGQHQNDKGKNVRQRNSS
The experiment in a line: receptor binding assay, Eu-labeled antibody on cells expressing human BSG2. The procedure: Cell lines expressing BSG2 were harvested and washed once in assay buffer (PBS, 0.1% BSA, 0.02% Na Azide, 10 mM EDTA) and resuspended to 5×10⁶ cells per mL. Serial 1:2 dilutions of ⁺³Eu-labeled anti-BSG2 antibody stock in assay buffer were made for final concentrations ranging from 1.6×10⁻⁸-7.7×10⁻¹² M, and a 4 mg/mL solution of unlabeled anti-BSG2 antibody was also prepared. To 96 well round bottom plates, 25 μl of ⁺³Eu-labeled antibody dilutions were added to 25 μl buffer (total counts), or 25 μl of unlabeled antibody were added to 25 μl buffer (background counts). 50 μl of cells at 2.5×10⁵ cells per well were then added to all samples, mixed gently, and incubated on ice for 1 hour. Cell bound antibody was then separated from unbound antibody by transferring 20 μL of the reaction mixture to Acrowell 96 well filter plates (Pall PN 5020), centrifuged for 5 min (2200 rpm), washed 3× with 150 μL cold assay buffer, and centrifuged for 5 min. Signal was determined by incubating samples with 150 μL/well of enhancement buffer and read using Envision. The specific counts were determined by subtracting the background counts (cells+labeled antibody+excess cold antibody) from the corresponding total counts (cells+labeled antibody) for each antibody concentration. The labeled antibody concentration versus total counts was analyzed using Graphpad Prism 4 to calculate Kd and Bmax values.
BSG2 antibody binding activities against whole cells expressing human or cynomolgus monkey BSG2 were assessed by ECL using MSD technology (described in Example 1.3) and the receptor binding assay (described in Example 1.4) and are shown in Table 11.

Assay [2] concerns the target T1, human BSG2 (basigin isoform 2) on the …. The experiment in a line: cell-based ECL (MSD) binding on whole cells expressing human BSG2.
Assay [3] shares this target. The experiment in a line: cell-based ECL (MSD) binding on cells expressing human BSG2. Here is the method:
Cells were plated at 25,000 cells/well in 25 μl PBS using 96 well MSD high binding plates (MSD, catalogue no. L11XB-3), and incubated at 37° C. for 1 hour. 25 μl/well of blocking solution (30% serum in PBS) was added to the plates for 30 minutes at room temperature with mild agitation. Plates were then incubated with 25 μl/well of BSG2 antibodies (10 μg/ml) diluted in assay buffer (10% serum in PBS) for 1 hour at room temperature with mild agitation, and then washed 3× with PBS. Goat anti-mouse or anti-human IgG sulfotag was added at 1 μg/ml for 1 hour with mild agitation, and plates were washed 3× with PBS. After the final wash, plates were incubated with 2×MSD surfactant-free read buffer (catalogue no. R92TD-2) and the signal was detected on a MSD SECTOR Imager 6000. Data were analyzed using Graphpad Prism software and EC₅₀ values were reported.
Select humanized variants were also tested for their functionality using ADCC and cell viability assays (described in Examples 1.6 and 1.7).

Assay [4] deals with T2, cynomolgus monkey BSG2 on the cell surface (cynomolgus monkey).
T2 construct: whole, on cells; also called BAF3-cyno BSG2; Cyno BSG2
Put plainly: flow cytometry (FACS) on BAF3 cells expressing cynomolgus BSG2. Here is the method: Stable cell lines overexpressing cell-surface BSG2 or human tumor cell lines were harvested from tissue culture flasks, washed three times and resuspended in phosphate buffered saline (PBS) containing 1% bovine serum albumin and 1 mM CaCl₂ (FACS buffer). 5×10⁵ cells were incubated with antibodies at various concentrations in FACS buffer for 60 minutes on ice. Cells were washed twice and the bound murine monoclonal antibody was detected with a goat Fab′2 anti-mouse IgM+IgG+IgA (H+L) R-phycoerythrin-conjugated antibody (Southern Biotechnology Associates, Inc., Birmingham, Ala., Catalog No. 1012-08) diluted 1:500. Following incubation on ice (4° C., 60 minutes), cells were washed three times and resuspended in FACS buffer. Fluorescence was measured using a Becton Dickinson FACSCalibur-HTS (Becton Dickinson, San Jose, Calif., US). Data were analyzed using Graphpad Prism software and EC₅₀ values were reported as the concentration of antibody to achieve 50% of maximal BSG2 antibodies binding to BSG2 expressing cells.

Results on 1 molecule are retold here after patent US20110223176A1 (AbbVie / Abbott, published 2011).

B1: mouse anti-human BSG2 monoclonal antibody ML64-6A11-3A3 (antibody, mouse IgG2a, V domains shown)
VH: EVKLEESGGGLVQPGGSMKLSCVASGFTFSNFWMDWVRQSPEKGLEWIAGIRLKSYNYATHYAESVKGRFTISRDDSKSSVYLQMNNLRAEDTGIYYCTDWDGAYWGQGTLVTVSA
VL: DIVMTQSHKFMSTSVGDRVSITCKASQDVSTDVAWYQQKPGQSPKLLIYSASYRYTGVPDRFTGSGSGTDFTFTISSVQAEDLAVYYCQQHYSTPFTFGSGTKLEIK
notes: Hybridoma antibody, mouse IgG2a/kappa; also called 6A11-3A3 parental mouse antibody; Ab 3A3
In assay [1], B1 had a Kd of 2000 pM. Moreover, the values for the concentration for a half-maximal effect (EC50) in assay [2], in assay [3] and in assay [4] were 600 pM, 600 pM and 350 pM, respectively.
